Results from patent publication US20190119406A1 (BISON THERAPEUTICS, published 2019).

Molecular target: T1, Mutant OA chain (long chain, CH1-hinge-CH2-CH3 with P395K, P396K, V397K) (human, UniProt P01857-1 1-330 = IgG part, P395K; P396K; V397K)
T1 construct: domain: CH1-hinge-CH2-CH3; Expressed alone it is expected as a long chain homodimer; also called OA mutation chain; Mutation OA chain
Assay: three independent co-transfections in HEK293, protein A bead pull-down, SDS-PAGE (FIG. 6)
Method: DNA encoding long chain and short chain were mixed with 1:1 ratio and transfected into HEK293 cells. Three days later, cell culture supernatants were harvested and subjected to magnetic protein A beads pull-down. Proteins bound to magnetic beads were analyzed by SDS-PAGE electrophoresis.
Various positive charged and negative charged polypeptide chain combinations were co-expressed in HEK 293 cells. […] Three days after transfection, cell culture supernatants were harvested by centrifugation and subjected to protein A magnetic beads (Pierce) pull down. Protein products bound on magnetic beads were characterized based on their mobility on SDS-PAGE gel electrophoresis. Collected protein A magnetic beads with bound proteins were re-suspended in 30 μL PBS buffer, mixed with 30 μL of SDS-PAGE loading buffer and boiled for 5 min. Half volume of boiled samples was loaded onto 10% SDS-PAGE to separate long chain homodimer, long chain and short chain heterodimer and short chain homodimer.

B1: Mutant OB chain (short chain, hinge-CH2-CH3 with T394D, P395D, P396D) (other, human, UniProt P01857-1 104-330, looked up, name in EU numbering)
chain: DKTHTCPPCPAPELLGGPSVFLFPPKPKDTLMISRTPEVTCVVVDVSHEDPEVKFNWYVDGVEVHNAKTKPREEQYNSTYRVVSVLTVLHQDWLNGKEYKCKVSNKALPAPIEKTISKAKGQPREPQVYTLPPSRDELTKNQVSLTCLVKGFYPSDIAVEWESNGQPENNYKTDDDVLDSDGSFFLYSKLTVDKSRWQQGNVFSCSVMHEALHNHYTQKSLSLSPGK
notes: domain: hinge-CH2-CH3; also called OB mutation chain; Mutation OB chain
B1: binds.
